According to paper PMC2888147:

Molecular target: His-tagged KCNE1 C-terminus (E1C) (human) (UniProt P15382)
Experiment: SEC

stoichiometry N: 2
Substance: His-tagged KCNE1 C-terminus (E1C) (from UniProt P15382 67-129) (domain or fragment)
